Data taken from article PMC3496014 (Journal of structural biology, 2012).

Tests used:
His6-PfAtg3 = target: T1, His6-PfAtg3 (P. falciparum 3D7, UniProt C0H519 1-313); assay: SEC + other: dynamic light scattering
T1 sequence (looked up): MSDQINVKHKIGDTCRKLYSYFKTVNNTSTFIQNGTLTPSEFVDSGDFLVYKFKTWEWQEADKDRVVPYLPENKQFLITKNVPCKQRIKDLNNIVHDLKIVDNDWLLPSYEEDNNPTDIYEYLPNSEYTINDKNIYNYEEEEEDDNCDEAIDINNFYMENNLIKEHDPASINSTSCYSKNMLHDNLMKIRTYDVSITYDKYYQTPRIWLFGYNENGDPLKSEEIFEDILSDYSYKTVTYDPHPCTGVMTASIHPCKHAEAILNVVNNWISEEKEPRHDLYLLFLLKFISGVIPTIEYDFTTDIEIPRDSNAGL

His6-PfAtg8 K47E = His6-PfAtg8 K47E (P. falciparum 3D7, UniProt Q8IJK2 1-124, K47E); assay: pull-down
[1] = target: His6-PfAtg8 E44A/K45S/K46A (P. falciparum 3D7, UniProt Q8IJK2 1-124, E44A | K45S | K46A); assay: pull-down
His6-PfAtg8 L49A = His6-PfAtg8 L49A (P. falciparum 3D7, UniProt Q8IJK2 1-124, L49A); assay: pull-down
His6-PfAtg8 R27E = His6-PfAtg8 R27E (P. falciparum 3D7, UniProt Q8IJK2 1-124, R27E); assay: pull-down

B1: His6-PfAtg8 wild type (natural protein, P. falciparum 3D7, UniProt Q8IJK2 1-124, looked up)
chain: MPSLKDEVSFENRVAETHKIRSKYPNRIPVVCERANRSNLPIIEKKKFLVPMNMLVGEFKFILHQHINQSAYGSNMKLFRERTIYLFVNNIVPKTGLLMQDLYEMYKDEDGYLYMEYSCESCLG
B1 was tested. Which “stoichiometry N” value (His6-PfAtg3) did it give?
The value was 1.

B2: MBP-PfAtg3 (enzyme)
chain: T1 sequence (looked up)
Does B2 bind (His6-PfAtg8 K47E)?
Result: binds

Does B2 bind [1]?
Result: binds

Does B2 bind (His6-PfAtg8 L49A)?
Result: binds

Does B2 bind (His6-PfAtg8 R27E)?
Result: binds
